Data reported in the Human Domainome abundance scans (Beltran et al. 2025).

B1: POU domain, class 3, transcription factor 2, residues 356 to 411; numbered along this chain, P20265 (parent)
chain: KKRTSIEVSVKGALESHFLKCPKPSAQEITSLADSLQLEKEVVRVWFCNRRQKEKR

Variants of: B1
Assay: abundance fitness (aPCA) (normalised: wild type 0, dead -1); higher = more abundant; growth selection in yeast, the domain comes from the species named
Settings: Homo sapiens

Abundance fitness: each site, then its substitutions
K11: V 0.026; T -0.027; W -0.039; Y -0.239
P24: F -0.999; C -0.731; A -0.789; W -0.839; M -0.628; L -0.936; I -0.919; E -0.846; V -0.821; Q -0.86; G -0.691; T -0.986; S -0.998
L32: R -0.911; K -0.927; A -0.994; I -0.161; E -0.916; G -0.834; F -0.341; P -0.944; D -1.03; M -0.08; Q -0.789; N -1.07; H -0.857
T30: D 0.05; Y -0.285; K 0.008; C -0.131; V -0.016; R -0.151; E 0.022; L -0.091; F -0.396; N 0.212; S 0.036; A -0.041; I -0.237; H -0.205; Q 0.078; W -0.324
E28: A -0.257; F -0.511; M -0.437; C -0.299; P -0.802; T -0.088; K -0.413; R -0.466; V -0.195; S -0.455; N -0.551; D -0.281; I -0.52; L -0.369; W -0.505; Q -0.402
A26: C -0.244; N -0.097; K -0.162; W -0.11; H -0.059; V -0.049; Q 0.01; S -0.134; T -0.033; G -0.141; R -0.13; Y -0.235; D 0.151; F -0.312; L -0.179; I -0.05; M 0.03; P -0.224; E -0.064
A13: Y -0.142; H -0.196; E -0.067; S -0.162; R 0.083; W -0.422; Q 0.011; M 0.024; T -0.064; D -0.356; C -0.044; L -0.074; I -0.184; V 0.042; N -0.211; G -0.379; P -0.442; K 0.081; F -0.019
K20: E -0.445; D -0.46; P -1.03; F -0.175; C -0.392; A -0.319; G -0.466; H -0.463; R -0.223; I -0.215; N -0.262; Q -0.443; Y -0.379; T -0.16; L -0.322; W -0.605; S -0.248; M -0.336; V -0.323
E15: Y -0.777; M -0.649; R -1.02; D -0.623; I -0.649; Q -0.527; P -1.04; N -0.693; T -0.788; G -0.885; S -0.959; W -0.822; C -0.612; K -0.83; H -0.805; A -0.88
C21: L -0.651; P -1.14; D -0.062; Y -0.506; G -0.521; A -0.304; K -0.478; N -0.168; F -0.351; W -0.437; Q -0.01; R -0.419; V -0.421; I -0.484; M -0.354; E -0.072
Q27: R -0.007; W -0.292; N 0.028; A -0.126; Y -0.268; P -0.21; E -0.155; S -0.079; G -0.131; M -0.35; H 0.092; V -0.061; K -0.014; D -0.08; C -0.081; I -0.14; F -0.327; T 0.02
G12: M 0.068; I 0.193; D -0.027; C 0.039; Y -0.058; N -0.153; S 0.097; H -0.015; F -0.085; P -0.152; Q -0.053; T 0.21; R -0.045; K -0.056; E 0.079; A 0.124; V 0.22; L 0.117
F18: M -1.02; D -0.875; N -0.856; T -1.2; C -0.914; S -0.824; E -0.979; K -0.936; R -0.872; L -0.836; A -0.902; V -1.03; I -1.1; G -0.976; W -0.335; H -0.938
S25: V -0.725; K -0.318; Y -0.798; F -0.902; M -0.446; N -0.167; I -0.793; P -0.579; R -0.47; G -0.194; L -0.423; H -0.467; A -0.322; T 0.038; C -0.231
K23: Y -0.312; N 0.105; V -0.045; S 0.024; W -0.336; A -0.135; T 0.086; D 0.093; R -0.041; C 0.023; I -0.117; P -0.863; M -0.077; L -0.203; E 0.072; G -0.426; F -0.163; Q -0.002
L19: K -0.162; D -0.142; R 0.006; F -0.474; V -0.056; M 0.007; E -0.026; G -0.245; C -0.114; I -0.113; S -0.03; N -0.075; P -0.911; Y -0.248; T -0.183
H17: E -0.139; Q -0.286; N -0.229; Y 0.156; S 0.089; L -0.292; P -1.05; V -0.287; G -0.712; R -0.556; K -0.364; W -0.02; M -0.047; A 0.127; I -0.289; T -0.1; C -0.283; D -0.833
P22: H -0.189; E -0.246; N -0.337; V -0.713; T -0.313; G -0.46; D -0.122; R -0.367; F -0.996; A -0.044; L -0.919; I -0.704; Q 0.137; S -0.253; W -0.699; Y -0.718; C -0.227; K -0.348
L14: N -0.632; R -0.855; W -0.915; M -0.501; V -0.641; H -0.762; E -0.794; F -0.814; G -0.882; K -0.933; I -0.706; T -0.953; S -0.923; C -0.78; A -1.04; Q -0.848
S16: T -0.034; I -0.368; C -0.226; W -0.399; Q 0.073; E -0.015; P -0.539; R -0.055; N -0.297; H -0.21; D -0.193; A 0.097; Y -0.382; M -0.06; K 0.12
I29: Y -0.741; R -0.93; L -0.095; K -0.994; W -0.855; N -1.05; V -0.158; A -1.03; T -0.593; H -0.817; S -0.884; F -0.786; E -0.763; C -0.633; Q -0.782; M -0.093
